We go through four molecules from patent publication US20230102339A1 (Eli Lilly, published 2023).

As a reminder, the Ki is the dissociation constant of the complex between target and ligand, obtained from inhibition or displacement.

The target in experiment [1] is T1, human GIP receptor (hGIPR) (human, UniProt P48546 22-466).
T1 sequence: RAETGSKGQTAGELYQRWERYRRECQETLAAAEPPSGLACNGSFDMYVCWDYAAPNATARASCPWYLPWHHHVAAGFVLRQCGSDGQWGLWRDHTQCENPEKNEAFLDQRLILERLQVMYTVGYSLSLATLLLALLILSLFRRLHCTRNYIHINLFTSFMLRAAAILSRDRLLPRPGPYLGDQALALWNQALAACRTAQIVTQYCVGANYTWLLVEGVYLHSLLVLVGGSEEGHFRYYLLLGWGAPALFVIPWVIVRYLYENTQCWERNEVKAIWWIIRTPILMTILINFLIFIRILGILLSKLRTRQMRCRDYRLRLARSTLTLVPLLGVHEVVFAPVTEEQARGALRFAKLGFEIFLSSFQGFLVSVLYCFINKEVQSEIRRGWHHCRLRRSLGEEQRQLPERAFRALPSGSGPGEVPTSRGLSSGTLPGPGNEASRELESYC
The experiment in a line: cell-based or functional assay.

Experiment [2] concerns the target T1, human GIP receptor (hGIPR). Briefly: cell-based or functional assay. The source holds these as a separate data set.
For experiment [3], the target named is T2, human GLP-1 receptor (hGLP-1R) (human, UniProt P43220 24-463). Briefly: cell-based or functional assay.
Experiment [4] addresses T3, human GCG receptor (hGCGR) (human, UniProt P47871 26-477). Briefly: cell-based or functional assay.
The target of experiment [5] is T2, human GLP-1 receptor (hGLP-1R). The experiment in a line: radioligand competition binding, SPA, membranes of HEK293 cells overexpressing hGLP-1R, with bacitracin. Here is the method: (§1) The assays are performed in the presence of bacitracin as a non-specific blocking agent to prevent acylated moieties of test analogs from binding to protein components used in standard assay buffers (e.g., albumin).
(§2) Competition curves are plotted as the percent specific inhibition (y-axis) versus log concentration of compound (x-axis) and analyzed using a four-parameter nonlinear regression fit with variable slope (ABase or Genedata).
(In general: Displacement assays read how much labelled ligand stays bound in the presence of the test substance.)

The target of experiment [6] is T1, human GIP receptor (hGIPR). The experiment in a line: radioligand competition binding, SPA, membranes of HEK293 cells overexpressing hGIPR, with bacitracin. Here is the method: as §1, §2
Experiment [7] has as its target T2, human GLP-1 receptor (hGLP-1R). The experiment in a line: cell-based or functional assay. This is another data set of the same source.
In experiment [8] the target is T3, human GCG receptor (hGCGR). The experiment in a line: radioligand competition binding, SPA, membranes of HEK293 cells overexpressing hGCGR, with bacitracin. The protocol:
as §1, §2

The target of experiment [9] is T1, human GIP receptor (hGIPR). Briefly: cell-based or functional assay. The source holds these as a separate data set.
Experiment [10] addresses T3, human GCG receptor (hGCGR). Briefly: cell-based or functional assay. This is another data set of the same source.

Substitutions are numbered along the chain they refer to. Read-outs that look alike come from different tables or passages of the source.

T3 sequence (P47871 other isoform, or with tags, fused parts or gaps limits assumed): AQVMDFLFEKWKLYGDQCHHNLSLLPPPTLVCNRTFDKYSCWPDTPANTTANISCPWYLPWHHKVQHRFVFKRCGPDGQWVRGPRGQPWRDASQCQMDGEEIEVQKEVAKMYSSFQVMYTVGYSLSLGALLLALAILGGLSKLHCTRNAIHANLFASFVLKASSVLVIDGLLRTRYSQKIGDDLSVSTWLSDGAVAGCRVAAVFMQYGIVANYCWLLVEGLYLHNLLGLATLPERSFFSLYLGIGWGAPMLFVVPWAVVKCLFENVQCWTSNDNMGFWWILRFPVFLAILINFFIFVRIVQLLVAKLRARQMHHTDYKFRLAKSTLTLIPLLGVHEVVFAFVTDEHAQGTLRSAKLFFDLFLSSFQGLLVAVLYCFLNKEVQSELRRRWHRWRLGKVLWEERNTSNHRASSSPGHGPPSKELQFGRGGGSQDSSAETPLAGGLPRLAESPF

Turning to “human GIP(1-42)NH2 (from UniProt P09681 52-93) (ligand)”, in experiment [1], the cAMP EC50 (0.1% bovine casein) was 1.08 nM; the cAMP EC50 (0.1% bovine casein, 1.0% human serum albumin) came out at 0.756 nM; the cAMP Emax (0.1% bovine casein) turned out to be 98%.

B1: Example 1 (Incretin Analog 1) (peptide)
peptide: YXQGTXTSDYSILLDXKAQXAFIEYLLEGGPSSGEPPPE
modifications: Aib at 2; αMeF(2F) at 6; Orn (O) at 16; K17 conjugated on the epsilon-amino group with 2-[2-(2-amino-ethoxy)-ethoxy]-acetyl-γE-CO-(CH2)18-CO2H; 4Pal at 20; C-terminal amide (E39-NH2)
notes: Synthetic acylated 39-residue peptide, obtained as TFA salt
With B1, the “cAMP EC50 (0.1% bovine casein)” value worked out at 0.0513 nM in experiment [2], 0.345 nM in [3] and 1.2 nM in experiment [4]. Further, the “cAMP Emax (0.1% bovine casein)” value in [2] turned out to be 102%; in experiment [3], 106%; in [4], 101%. For the same molecule, the inhibition constant (Ki) was 4.53 nM in [5], 0.111 nM in [6] and 0.629 nM in [8]. For the same molecule, the “cAMP EC50 (0.1% bovine casein, 1.0% human serum albumin)” value in [7] came to 180 nM. The “cAMP Emax (0.1% bovine casein, 1.0% human serum albumin)” value in experiment [7] was found to be 102%.

B2: Example 2 (Incretin Analog 2) (peptide)
peptide: B1 peptide with L13X, Y25X, E39S
modifications: Aib at 2; αMeF(2F) at 6; αMeL at 13; Orn (O) at 16; K17 conjugated on the epsilon-amino group with 2-[2-(2-amino-ethoxy)-ethoxy]-acetyl-γE-CO-(CH2)18-CO2H; Iva at 20; αMeY at 25; C-terminal amide (S39-NH2)
notes: Synthetic acylated 39-residue peptide
Regarding B2, the “cAMP EC50 (0.1% bovine casein)” value in experiment [2] was 0.0256 nM. Further, the “cAMP Emax (0.1% bovine casein)” value in [2] amounted to 101%. Further, the Ki in [5] amounted to 2.54 nM; in experiment [6], 0.158 nM; in experiment [8], 0.95 nM. The “cAMP EC50 (0.1% bovine casein, 1.0% human serum albumin)” value in [9] was determined as 2.91 nM; in experiment [7], 119 nM; in experiment [10], 537 nM. For the same molecule, the entries for the “cAMP Emax (0.1% bovine casein, 1.0% human serum albumin)” value in experiment [9], in experiment [7] and in experiment [10] were 99%, 116% and 112%, respectively.

B3: Example 3 (Incretin Analog 3) (peptide)
peptide: YXQGTXTSDXSIXLDXKAQXXFIXXLLEGGPSSGEPPPS
modifications: Aib at 2; αMeF(2F) at 6; 4Pal at 10; αMeL at 13; Orn (O) at 16; K17 conjugated on the epsilon-amino group with 2-[2-(2-amino-ethoxy)-ethoxy]-acetyl-γE-CO-(CH2)18-CO2H; αMeL at 20; Aib at 21; D-glutamic acid (e) at 24; αMeY at 25; C-terminal amide (S39-NH2)
notes: as for B2
For B3, the “cAMP EC50 (0.1% bovine casein)” value in experiment [2] amounted to 0.0306 nM; in experiment [3], 0.451 nM; in experiment [4], 2.49 nM. For the same molecule, the “cAMP Emax (0.1% bovine casein)” value in experiment [2] is 103%; in experiment [3], 107%; in experiment [4], 99%. Also, the Ki in experiment [5] is 3.63 nM; in experiment [6], 0.114 nM; in experiment [8], 1.73 nM. Further, the entries for the “cAMP EC50 (0.1% bovine casein, 1.0% human serum albumin)” value in experiment [9], in experiment [7] and in experiment [10] were 3.72 nM, 114 nM and 480 nM, respectively. Moreover, the “cAMP Emax (0.1% bovine casein, 1.0% human serum albumin)” value in experiment [9] stood at 105%; in experiment [7] it was 111%; in experiment [10] it was 97%.
